Test results taken from paper PMC6447653.

Target: T1, AtWRI1 (Arabidopsis thaliana) (UniProt Q6X5Y6)
T1 sequence: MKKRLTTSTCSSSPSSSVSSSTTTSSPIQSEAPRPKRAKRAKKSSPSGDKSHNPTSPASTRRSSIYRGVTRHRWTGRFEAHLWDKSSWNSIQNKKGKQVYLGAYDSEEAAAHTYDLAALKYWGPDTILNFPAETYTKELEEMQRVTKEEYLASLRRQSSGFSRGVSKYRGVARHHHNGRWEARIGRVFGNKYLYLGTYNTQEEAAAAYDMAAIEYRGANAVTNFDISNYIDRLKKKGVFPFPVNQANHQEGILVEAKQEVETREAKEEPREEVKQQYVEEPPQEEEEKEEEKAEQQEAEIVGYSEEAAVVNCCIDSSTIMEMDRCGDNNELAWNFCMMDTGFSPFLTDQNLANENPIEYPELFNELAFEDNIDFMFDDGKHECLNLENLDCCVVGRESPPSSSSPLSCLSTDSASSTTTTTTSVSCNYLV
Test: EMSA
Settings: fEMSA: 150 mM KCl, 0.1 mM DTT, 10 mM Tris pH 7.4, 150 ng poly(dI-dC), 50 ng Cy5 probe, 10 ul, 30 min, room temperature

Sequence: TAAAAGAGTTGGGTTTCTTCGTAAGCATCGAAATCAGATTTCTTTACCAAAGAAAAAATAAAGAAAAGAAAAATATAGCAAGTACACTGCATTTCAACACTCTCATATCTCTCCTTCCTACTTCCTCGGTTTCATCGTCCACTGTCTCAA (double strand) [BCCP2up (-2/-151)]
- binding: binds
